Test [1] relates to GFP-14-3-3β and its binding proteins. Nature of the test: GFP-14-3-3β co-IP with LC-MS/MS label-free quantification, untreated versus PP1c-treated. The following applies: PP1 vs untreated; LFQ intensities; 3 replicates each. Also noted: species or system human.
For another test, the system named is GFP-14-3-3β. The experiment in a line: GFP-14-3-3β co-IP with LC-MS/MS, untreated GFP-14-3-3β versus GFP control (14-3-3 interactome). The following applies: untreated vs GFP; LFQ intensities; 3 replicates each. The test is classed as binding, human.

B1: CPM (protein, UniProt P14384 18-423, looked up)
Carboxypeptidase M: LDFNYHRQEGMEAFLKTVAQNYSSVTHLHSIGKSVKGRNLWVLVVGRFPKEHRIGIPEFKYVANMHGDETVGRELLLHLIDYLVTSDGKDPEITNLINSTRIHIMPSMNPDGFEAVKKPDCYYSIGRENYNQYDLNRNFPDAFEYNNVSRQPETVAVMKWLKTETFVLSANLHGGALVASYPFDNGVQATGALYSRSLTPDDDVFQYLAHTYASRNPNMKKGDECKNKMNFPNGVTNGYSWYPLQGGMQDYNYIWAQCFEITLELSCCKYPREEKLPSFWNNNKASLIEYIKQVHLGVKGQVFDQNGNPLPNVIVEVQDRKHICPYRTNKYGEYYLLLLPGSYIINVTVPGHDPHITKVIIPEKSQNFSALKKDILLPFQGQLDSIPVSNPSCPMIPLYRNLPDHS
Regarding B1, the “Difference (log2), PP1 vs untreated” value in test [1] came out at 0.5874 log2. In the test on GFP-14-3-3β, the “Difference (log2), untreated vs GFP” value was -1.988 log2.

B2: MYO1B (protein, UniProt O43795 1-1136, looked up)
Unconventional myosin-Ib: MAKMEVKTSLLDNMIGVGDMVLLEPLNEETFINNLKKRFDHSEIYTYIGSVVISVNPYRSLPIYSPEKVEEYRNRNFYELSPHIFALSDEAYRSLRDQDKDQCILITGESGAGKTEASKLVMSYVAAVCGKGAEVNQVKEQLLQSNPVLEAFGNAKTVRNDNSSRFGKYMDIEFDFKGDPLGGVISNYLLEKSRVVKQPRGERNFHVFYQLLSGASEELLNKLKLERDFSRYNYLSLDSAKVNGVDDAANFRTVRNAMQIVGFMDHEAESVLAVVAAVLKLGNIEFKPESRVNGLDESKIKDKNELKEICELTGIDQSVLERAFSFRTVEAKQEKVSTTLNVAQAYYARDALAKNLYSRLFSWLVNRINESIKAQTKVRKKVMGVLDIYGFEIFEDNSFEQFIINYCNEKLQQIFIELTLKEEQEEYIREDIEWTHIDYFNNAIICDLIENNTNGILAMLDEECLRPGTVTDETFLEKLNQVCATHQHFESRMSKCSRFLNDTSLPHSCFRIQHYAGKVLYQVEGFVDKNNDLLYRDLSQAMWKASHALIKSLFPEGNPAKINLKRPPTAGSQFKASVATLMKNLQTKNPNYIRCIKPNDKKAAHIFNEALVCHQIRYLGLLENVRVRRAGYAFRQAYEPCLERYKMLCKQTWPHWKGPARSGVEVLFNELEIPVEEYSFGRSKIFIRNPRTLFKLEDLRKQRLEDLATLIQKIYRGWKCRTHFLLMKKSQIVIAAWYRRYAQQKRYQQTKSSALVIQSYIRGWKARKILRELKHQKRCKEAVTTIAAYWHGTQARRELRRLKEEARNKHAIAVIWAYWLGSKARRELKRLKEEARRKHAVAVIWAYWLGLKVRREYRKFFRANAGKKIYEFTLQRIVQKYFLEMKNKMPSLSPIDKNWPSRPYLFLDSTHKELKRIFHLWRCKKYRDQFTDQQKLIYEEKLEASELFKDKKALYPSSVGQPFQGAYLEINKNPKYKKLKDAIEEKIIIAEVVNKINRANGKSTSRIFLLTNNNLLLADQKSGQIKSEVPLVDVTKVSMSSQNDGFFAVHLKEGSEAASKGDFLFSSDHLIEMATKLYRTTLSQTKQKLNIEISDEFLVQFRQDKVCVKFIQGNQKNGSVPTCKRKNNRLLEVAVP
For B2, the “Difference (log2), PP1 vs untreated” value in test [1] is on record as 0.5838 log2. Further, the “Difference (log2), untreated vs GFP” value in the test on GFP-14-3-3β is on record as -1.083 log2.

B3: ATXN2 (protein, UniProt Q99700 1-1313, looked up)
Ataxin-2: MRSAAAAPRSPAVATESRRFAAARWPGWRSLQRPARRSGRGGGGAAPGPYPSAAPPPPGPGPPPSRQSSPPSASDCFGSNGNGGGAFRPGSRRLLGLGGPPRPFVVLLLPLASPGAPPAAPTRASPLGARASPPRSGVSLARPAPGCPRPACEPVYGPLTMSLKPQQQQQQQQQQQQQQQQQQQQQQQPPPAAANVRKPGGSGLLASPAAAPSPSSSSVSSSSATAPSSVVAATSGGGRPGLGRGRNSNKGLPQSTISFDGIYANMRMVHILTSVVGSKCEVQVKNGGIYEGVFKTYSPKCDLVLDAAHEKSTESSSGPKREEIMESILFKCSDFVVVQFKDMDSSYAKRDAFTDSAISAKVNGEHKEKDLEPWDAGELTANEELEALENDVSNGWDPNDMFRYNEENYGVVSTYDSSLSSYTVPLERDNSEEFLKREARANQLAEEIESSAQYKARVALENDDRSEEEKYTAVQRNSSEREGHSINTRENKYIPPGQRNREVISWGSGRQNSPRMGQPGSGSMPSRSTSHTSDFNPNSGSDQRVVNGGVPWPSPCPSPSSRPPSRYQSGPNSLPPRAATPTRPPSRPPSRPSRPPSHPSAHGSPAPVSTMPKRMSSEGPPRMSPKAQRHPRNHRVSAGRGSISSGLEFVSHNPPSEAATPPVARTSPSGGTWSSVVSGVPRLSPKTHRPRSPRQNSIGNTPSGPVLASPQAGIIPTEAVAMPIPAASPTPASPASNRAVTPSSEAKDSRLQDQRQNSPAGNKENIKPNETSPSFSKAENKGISPVVSEHRKQIDDLKKFKNDFRLQPSSTSESMDQLLNKNREGEKSRDLIKDKIEPSAKDSFIENSSSNCTSGSSKPNSPSISPSILSNTEHKRGPEVTSQGVQTSSPACKQEKDDKEEKKDAAEQVRKSTLNPNAKEFNPRSFSQPKPSTTPTSPRPQAQPSPSMVGHQQPTPVYTQPVCFAPNMMYPVPVSPGVQPLYPIPMTPMPVNQAKTYRAVPNMPQQRQDQHHQSAMMHPASAAGPPIAATPPAYSTQYVAYSPQQFPNQPLVQHVPHYQSQHPHVYSPVIQGNARMMAPPTHAQPGLVSSSATQYGAHEQTHAMYACPKLPYNKETSPSFYFAISTGSLAQQYAHPNATLHPHTPHPQPSATPTGQQQSQHGGSHPAPSPVQHHQHQAAQALHLASPQQQSAIYHAGLAPTPPSMTPASNTQSPQNSFPAAQQTVFTIHPSHVQPAYTNPPHMAHVPQAHVQSGMVPSHPTAHAPMMLMTTQPPGGPQAALAQSALQPIPVSTTAHFPYMTHPSVQAHHQQQL
Turning to B3, the “Difference (log2), PP1 vs untreated” value in test [1] is recorded as 0.5906 log2. In the test with GFP-14-3-3β, the “Difference (log2), untreated vs GFP” value is 1.35 log2.

B4: OSBPL8 (protein, UniProt Q9BZF1 1-889, looked up)
Oxysterol-binding …: MEGGLADGEPDRTSLLGDSKDVLGPSTVVANSDESQLLTPGKMSQRQGKEAYPTPTKDLHQPSLSPASPHSQGFERGKEDISQNKDESSLSMSKSKSESKLYNGSEKDSSTSSKLTKKESLKVQKKNYREEKKRATKELLSTITDPSVIVMADWLKIRGTLKSWTKLWCVLKPGVLLIYKTQKNGQWVGTVLLNACEIIERPSKKDGFCFKLFHPLEQSIWAVKGPKGEAVGSITQPLPSSYLIIRATSESDGRCWMDALELALKCSSLLKRTMIREGKEHDLSVSSDSTHVTFYGLLRANNLHSGDNFQLNDSEIERQHFKDQDMYSDKSDKENDQEHDESDNEVMGKSEESDTDTSERQDDSYIEPEPVEPLKETTYTEQSHEELGEAGEASQTETVSEENKSLIWTLLKQVRPGMDLSKVVLPTFILEPRSFLDKLSDYYYHADFLSEAALEENPYFRLKKVVKWYLSGFYKKPKGLKKPYNPILGETFRCLWIHPRTNSKTFYIAEQVSHHPPISAFYVSNRKDGFCLSGSILAKSKFYGNSLSAILEGEARLTFLNRGEDYVMTMPYAHCKGILYGTMTLELGGTVNITCQKTGYSAILEFKLKPFLGSSDCVNQISGKLKLGKEVLATLEGHWDSEVFITDKKTDNSEVFWNPTPDIKQWRLIRHTVKFEEQGDFESEKLWQRVTRAINAKDQTEATQEKYVLEEAQRQAARDRKTKNEEWSCKLFELDPLTGEWHYKFADTRPWDPLNDMIQFEKDGVIQTKVKHRTPMVSVPKMKHKPTRQQKKVAKGYSSPEPDIQDSSGSEAQSVKPSTRRKKGIELGDIQSSIESIKQTQEEIKRNIMALRNHLVSSTPATDYFLQQKDYFIIFLLILLQVIINFMFK
For the molecule B4, the “Difference (log2), PP1 vs untreated” value in test [1] was 0.5791 log2. Further, the “Difference (log2), untreated vs GFP” value with GFP-14-3-3β turned out to be 0.9951 log2.
